The values below come from patent US20160168251A1 (MorphoSys, published 2016).

Assay [1] deals with T1, rat NPRA on HEK cells bound to ANP (rat, UniProt P18910 29-1057; P01161 123-150).
T1 sequence (looked up): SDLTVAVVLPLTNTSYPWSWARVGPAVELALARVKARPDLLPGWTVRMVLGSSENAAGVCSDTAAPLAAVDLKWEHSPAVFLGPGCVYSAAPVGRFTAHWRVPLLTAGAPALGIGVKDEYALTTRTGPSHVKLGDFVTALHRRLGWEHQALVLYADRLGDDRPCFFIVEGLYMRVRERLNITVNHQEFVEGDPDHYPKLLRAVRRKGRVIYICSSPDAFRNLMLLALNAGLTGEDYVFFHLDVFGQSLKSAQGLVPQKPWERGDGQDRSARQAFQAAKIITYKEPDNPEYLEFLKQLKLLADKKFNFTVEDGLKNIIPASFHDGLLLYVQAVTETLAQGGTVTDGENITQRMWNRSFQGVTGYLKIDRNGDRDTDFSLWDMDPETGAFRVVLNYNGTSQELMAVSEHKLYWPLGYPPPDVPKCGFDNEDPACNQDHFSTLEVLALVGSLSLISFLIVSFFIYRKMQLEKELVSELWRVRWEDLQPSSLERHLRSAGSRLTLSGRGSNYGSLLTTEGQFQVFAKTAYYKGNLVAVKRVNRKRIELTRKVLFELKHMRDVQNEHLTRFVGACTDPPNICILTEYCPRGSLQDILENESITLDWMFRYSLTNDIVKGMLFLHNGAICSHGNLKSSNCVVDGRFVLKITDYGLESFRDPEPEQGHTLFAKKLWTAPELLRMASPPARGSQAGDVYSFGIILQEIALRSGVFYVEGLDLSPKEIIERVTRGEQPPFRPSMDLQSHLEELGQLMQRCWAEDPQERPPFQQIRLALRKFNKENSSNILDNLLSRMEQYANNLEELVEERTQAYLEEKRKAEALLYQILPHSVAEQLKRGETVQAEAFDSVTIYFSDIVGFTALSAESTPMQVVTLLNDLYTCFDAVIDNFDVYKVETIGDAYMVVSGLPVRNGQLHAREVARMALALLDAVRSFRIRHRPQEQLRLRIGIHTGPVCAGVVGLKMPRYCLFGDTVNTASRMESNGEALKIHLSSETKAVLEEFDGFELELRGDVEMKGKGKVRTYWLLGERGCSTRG
T1 sequence (peptide, looked up): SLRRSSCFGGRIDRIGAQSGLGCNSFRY
In words: cell-based or functional assay.

Assay [2] addresses T2, rhesus monkey NPRA on HEK cells bound to ANP (rhesus monkey, UniProt F7HE88 33-1061; P01160 124-151, chain 2: ANP is cyclic, its 17-residue ring closed by a disulfide bond between its two cysteines).
T2 construct: also called Rhesus NPRA
T2 sequence: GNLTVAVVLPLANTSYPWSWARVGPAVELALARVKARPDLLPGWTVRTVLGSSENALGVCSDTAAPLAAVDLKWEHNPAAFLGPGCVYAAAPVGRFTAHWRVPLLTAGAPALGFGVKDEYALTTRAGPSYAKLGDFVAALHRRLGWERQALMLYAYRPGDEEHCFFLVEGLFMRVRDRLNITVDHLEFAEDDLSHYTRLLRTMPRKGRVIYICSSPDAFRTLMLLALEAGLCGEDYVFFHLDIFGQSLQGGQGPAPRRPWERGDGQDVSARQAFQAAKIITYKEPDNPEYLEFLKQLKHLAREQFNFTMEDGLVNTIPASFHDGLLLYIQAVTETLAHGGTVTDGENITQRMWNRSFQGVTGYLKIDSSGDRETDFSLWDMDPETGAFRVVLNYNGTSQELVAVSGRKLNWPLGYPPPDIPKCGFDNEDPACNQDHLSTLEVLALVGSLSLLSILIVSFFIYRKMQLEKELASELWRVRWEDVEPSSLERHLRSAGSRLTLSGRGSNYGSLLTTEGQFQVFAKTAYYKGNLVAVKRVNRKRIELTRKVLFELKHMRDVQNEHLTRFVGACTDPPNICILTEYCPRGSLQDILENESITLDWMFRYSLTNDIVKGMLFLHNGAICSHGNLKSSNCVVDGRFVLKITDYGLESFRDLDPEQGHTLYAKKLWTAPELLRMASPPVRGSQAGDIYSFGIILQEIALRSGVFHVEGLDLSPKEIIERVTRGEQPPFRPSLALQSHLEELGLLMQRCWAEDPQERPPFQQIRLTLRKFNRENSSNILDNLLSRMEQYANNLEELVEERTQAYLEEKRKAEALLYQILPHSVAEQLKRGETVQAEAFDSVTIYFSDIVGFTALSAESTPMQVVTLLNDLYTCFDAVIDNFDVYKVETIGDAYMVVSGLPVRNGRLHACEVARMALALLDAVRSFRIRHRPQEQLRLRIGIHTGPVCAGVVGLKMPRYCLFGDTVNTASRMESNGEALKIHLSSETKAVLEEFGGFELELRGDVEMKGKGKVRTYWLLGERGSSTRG
T2 sequence (peptide): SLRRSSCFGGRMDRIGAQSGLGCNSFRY
In words: KinExA whole cell binding (Kd,app), HEK cells with rhesus NPRA, ANP bound. On the technique in general: Kinetic exclusion samples the free partner from a solution-phase mixture.
Method: Initial species cross-reactivity studies are performed using HEK cell lines overexpressing rat, canine and rhesus monkey NPRA. […] These apparent Kd values are obtained by globally fitting the data for two antibody concentrations.

B1: 5591 IgG4_Pro (antibody, V domains shown)
VH: QVQLQQSGPGLVKPSQTLSLTCAISGDSVSSRSASWSWIRQSPGRGLEWLGRTYYRSHWYYEYAQSVKSRITINPDTSKNQFSLQLNSVTPEDTAVYYCARMDVPSFRYFDVWGQGTLVTVSS
VL: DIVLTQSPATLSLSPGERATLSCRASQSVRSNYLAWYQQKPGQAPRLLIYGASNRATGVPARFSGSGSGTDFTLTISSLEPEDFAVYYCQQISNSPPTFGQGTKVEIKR
B1: the “Fold shift in EC50 of ANP (cGMP), HEK cells with rat NPRA” value in assay [1] came out at 3 fold. This molecule showed a Kd in assay [2] of 0.266 nM.
